The record followed here is paper PMC5737863, “Entirely enzymatic nanofabrication of DNA–protein conjugates”.

The target of series [1] is HER2 (UniProt P04626 23-652). The series is described as follows: bead pull-down, GFP fluorescence; aptamer conjugated to mVirD2-GFP; PBS, room temperature; Conjugation/EMSA: TKM buffer (50 mM Tris-HCl pH 8, 150 mM KCl, 1 mM MgCl2, 10% glycerol), 37 C, 1 h, 10% native PAGE; HER2 beads: PBS, room temperature, 15 min. As to conditions: protein: commercial; tags: Fc; label: GFP (via conjugated protein).

The target in series [2] is T1, mVirD2 (Agrobacterium tumefaciens (from …, UniProt P06668 1-204)).
T1 sequence: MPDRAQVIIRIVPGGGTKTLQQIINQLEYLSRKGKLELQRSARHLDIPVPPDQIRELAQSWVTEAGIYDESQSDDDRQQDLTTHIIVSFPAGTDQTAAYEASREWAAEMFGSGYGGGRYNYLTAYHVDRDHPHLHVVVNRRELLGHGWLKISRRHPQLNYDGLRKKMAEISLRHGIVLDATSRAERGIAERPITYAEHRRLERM
Description: EMSA; apparent Kd; 1 mM Mg2+; covalent conjugation; Conjugation/EMSA: TKM buffer (50 mM Tris-HCl pH 8, 150 mM KCl, 1 mM MgCl2, 10% glycerol), 37 C, 1 h, 10% native PAGE; HER2 beads: PBS, room temperature, 15 min. As to conditions: protein: recombinant; tags: N-terminal 6xHis; label: 3' Cy3.

In series [3] the target is T1, mVirD2. The series is described as follows: EMSA; non-covalent; no nicking; Conjugation/EMSA: TKM buffer (50 mM Tris-HCl pH 8, 150 mM KCl, 1 mM MgCl2, 10% glycerol), 37 C, 1 h, 10% native PAGE; HER2 beads: PBS, room temperature, 15 min. The following applies: protein: recombinant; tags: N-terminal 6xHis; single-stranded.
Series [4] deals with T1, mVirD2. The series is described as follows: EMSA; 1 mM Mg2+; higher conjugate yield than T1; Conjugation/EMSA: TKM buffer (50 mM Tris-HCl pH 8, 150 mM KCl, 1 mM MgCl2, 10% glycerol), 37 C, 1 h, 10% native PAGE; HER2 beads: PBS, room temperature, 15 min. As to conditions: protein: recombinant; tags: N-terminal 6xHis; label: 3' Cy3.
Series [5] addresses T2, mVirD2-GFP (Agrobacterium tumefaciens (from …, UniProt P06668 1-204)).
T2 sequence: T1 sequence
Description: denaturing PAGE shift; covalent conjugate; Conjugation/EMSA: TKM buffer (50 mM Tris-HCl pH 8, 150 mM KCl, 1 mM MgCl2, 10% glycerol), 37 C, 1 h, 10% native PAGE; HER2 beads: PBS, room temperature, 15 min. The following applies: protein: recombinant; tags: N-terminal 6xHis.

For series [6], the target named is T1, mVirD2. Description: denaturing PAGE and SDS-PAGE shift; covalent conjugate; Conjugation/EMSA: TKM buffer (50 mM Tris-HCl pH 8, 150 mM KCl, 1 mM MgCl2, 10% glycerol), 37 C, 1 h, 10% native PAGE; HER2 beads: PBS, room temperature, 15 min. As to conditions: protein: recombinant; tags: N-terminal 6xHis.

B1: HeA2_3 aptamer, nicked and conjugated to mVirD2-GFP (ssDNA)
DNA: CCAGTCAGTAGGGAAGAGAAGGACATATGATTCTAAAAGGATTCTTCCCAAGGGGATCCAATTCAAACAGC
modifications: 5' end covalently linked to mVirD2-GFP Tyr29
With B1, the binding result in series [1] is recorded as “binds”.

Take GCTCAAATTACAACGGTATATATCCTGCCAGTCAG (ssDNA) [T1 (VirTarget)]: the Kd in series [2] is 468 ± 68 nM.

B2: ss Cut site RNA (mixed)
DNA: GCTCAAATTACAACGGTATATATCCTGCCAGTCAG
modifications: DNA-RNA chimera; AT-rich binding sequence is DNA, cut site is RNA (bold lost in text)
B2: the binding result in series [3] is “binds”.

With GCTCAAATTACAACGGTATATATCCTGCCAGTCAG (XNA, phosphorothioate bonds at underlined bases (underline lost in text)) [PS-T1VirTarget], the binding result in series [4] is “binds”.

B3: MOSIC HeA2_3 with mVirD2 site (ssDNA)
DNA: GCTCAAATTACAACGGTATATATCCTGCCAGTCAGTAGGGAAGAGAAGGACATATGATTCTAAAAGGATTCTTCCCAAGGGGATCCAATTCAAACAGC
Take B3: the binding result in series [5] and in series [6] was “binds” in each case.
